Patent US20250147051A1, “METHOD FOR DETECTING A TAU PROTEIN IN A SALIVA SAMPLE” (GTINVENT LIMITED, priority 2022, published 2025)

Columns and labels:
plasma tau = assay: 3-step Simoa assays of human plasma (AD/MCI vs healthy control / CU); details: label = capture antibody; CA4 with BT2 detector; BT2 or HT7 with S1D12 or S1G2 detectors
Experimental: Human plasma samples were sourced from the commercial supplier Logical Biological Ltd. Healthy control (HC, n=12) and samples from individuals with a diagnosis of AD or mild cognitive impairment (AD/MCI, n=42) were aliquoted into low bind microfuge tubes and stored at −80° C.
The Simoa® experiments used for plasma screening utilised a 3-step protocol optimised for use with plasma samples. A standard curve (540 pg/ml−0.7 pg/ml) was created by spiking recombinant hTau40 into Tau 2.0 diluent and triple diluting. Plasma samples were diluted 1:100 and added in duplicate to the Simoa® plate followed by the addition of respective capture beads. Different antibody pairings used for plasma screening is explained in Table 28. In general, the capture antibody coated beads are mixed with diluted plasma samples, added to the plates and incubated for 30 min at 30° C. with shaking. Following the incubation, the plates were washed using the Simoa® plate washer before the addition of 0.2 μg/ml biotinylated detector antibody which was left to incubate as before for 10 min. The plates were then washed again before the addition of SBG and a final 10 min incubation. After the final incubation and wash steps the plates were transferred to the Simoa® reader and plasma tau concentrations generated against a 4-parameter fit curve. […]

tau protein = assay: Capture ELISA of transgenic mouse brain lysates; details: S1D12 mAb capture, label = detection scAb, WT, L1, L66+/- and L66+/+
Experimental: Mouse brain lysates were prepared from wildtype, Line 1, Line 66+/+ and Line 66+/− (Melis et al., 2015, all surplus from Charles River, part of study R0144). All animals were female, 7-8 months old except Line 66+/+ which were 5 months old. […] The L1 cDNA construct (FIG. 23) contains human tau cDNA coding for amino acid residues 296-390 with a signal sequence and related sequences in a murine Thy-1 expression cassette. For brain lysate preparation, half brains were sectioned into four and the individual sections were homogenised in 400 μl of ice cold RIPA buffer (Cell signalling Technology) containing protease and phosphatase inhibitors. Total protein concentrations for individual samples were established by BCA-assay and each sample was subsequently diluted to 1 mg/ml for future experiments.
For capture ELISA, 100 μL S1D12 capture mAb was used to coat a nunc 96 well Maxisorp plate at 1 μg/ml and incubated for 1 hour at 37° C. Plate was washed as previously and then blocked for 1 hour at 37° C. in 2% MPBS. Brain homogenate samples (50 ng total protein) from each mouse type were added to the first wells and double diluted across the plate in PBS. These samples were left to incubate at RT for 1 hour. Various detection scAbs encompassing epitopes of interest were then added to the plate at 1 μg/ml and incubated for 1 h at RT. Secondary antibody used was anti-HuCk HRP and the assays were developed as described previously. Using S1D12 mAb capture and two separate scAb detectors, S-1G2 (FIG. 24A) and C-B7 (FIG. 24B), it was possible to differentiate between L1 and L66 samples and the wild type.

tau [1] = assay: Capture ELISA of transgenic mouse plasma; details: Line66 transgenic model; detection scAb with S1D12 mAb capture
Experimental: Plasma samples from WT, L1, L66+/− and L66+/+ of various ages (1.5-9 months) were taken as described. Mice were terminally anaesthetized using an overdose of sodium pentobarbital and blood was collected through cardiac puncture through a Plastipak syringe pre-rinsed with heparinised saline heparin (10 U/ml) (Heparin sodium salt; Sigma-Aldrich) and transferred into a plastic vial containing lithium heparin anticoagulant (Sarstedt Ltd.) Blood samples, kept on ice for no more than 30 minutes, were centrifuged to obtain plasma at 2000×g for 5 minutes at 6° C. Plasma samples were stored at −20° C.
For mouse plasma capture ELISA, 100 μL capture mAb was coated to the bottom of a black nunc 96 well ‘maxisorp’ plate at 2.5 μg/ml and incubated for 1 hour at 37° C. After washing and blocking as normal, several known standard solutions were set up in triplicate starting at 20 ng/ml of the desired protein before double diluted in the remaining wells. Mouse samples were added to wells in duplicate with a blank in between each sample group. Line1 plasma was diluted 1:10 before addition to plate to account for its high concentration while other samples were diluted 1:2 to account for potential matrix effects. […] The ELISA was developed using SuperSignal ELISA Femto Substrate (Thermo Scientific) and total luminescence was read on Clariostar Plus plate reader (BMG Labtech). […]

tau [2] = assay: Western blot of mouse brain homogenates (WT, L66+/+, L1+/+); details: 20 μg brain homogenate protein, 5-month-old WT, L1+/+ mice
Experimental: Protein equivalent to 20 μg from each brain extract was separated using 4-20% bis-tris gels and run in 1×MES buffer. […] A clear band is visible in the lanes containing L66^+/+ samples, but no other bands are detectable (WT or L1^+/+). […] Once again, a band having relative mobility of 65 kDa is visible in the L66 sample with no other reactive bands present.
This band most likely corresponds to endogenous mouse tau which is of a similar size. In the L66^+/+ samples, a second band running at approximately 68 kDa is also detected. The presence of numerous other bands indicates proteolytic truncation of tau within brain homogenates.

hT40 = assay: Binding ELISA with truncated tau proteins and 13mer peptide libraries for epitope mapping of anti-tau scAbs; design: species or system human; details: residue numbers of hT40
Experimental: A series of binding ELISA was performed using various truncated versions of the tau protein and 13mer peptide libraries spanning the entire hT40 molecule for mapping the epitopes of anti-tau scAbs (Full list of protein antigens used is given in Table 14). In general, ELISA plates were coated with 1 μg/ml hT40 or dGA or dGAE or other truncated versions of the protein and in the case of biotinylated peptides, plates were coated with 5 μg/ml Streptavidin followed by 1 μg/ml biotinylated peptide. The plates were blocked with 2% MPBS and scAb samples added at desired starting concentrations and double diluted across the plate. Binding was detected using anti-Human C Kappa HRP conjugated secondary antibody and the resulting immunoreaction was developed and absorbance values measured as described above.
Selected E specific scAbs and their specific binding to dGAE is shown below (FIG. 8A-E).
Similarly, dGA binding ‘NS’, ‘S’ and ‘M’ group scAbs were subjected to further antigen binding ELISA using shorter tau proteins and biotinylated 13mer peptides as shown below (FIG. 10A-F) and (FIG. 11A-R).

dGA = dGA (Homo sapiens, UniProt P10636); assay: Biacore X100 SPR binding kinetics of anti-tau scAbs (scAb captured via HuCk), analyte dGA; details: lead scAbs
Experimental: Surface plasmon resonance (SPR) is widely regarded as the gold standard for real time measurement of protein-protein interactions such as antibody binding. All SPR experiments were carried out using a Biacore X100 machine and HBS EP+ running buffer (GE Healthcare). A ‘capture’ method was followed for affinity measurements, where an anti-human constant kappa chain (HuCk) antibody was conjugated to the surface of a CM5 sensor chip using an amine coupling kit and scAb molecules were immobilised via their HuCk domain. Amine coupling is a very common approach for immobilising the ligand to the chip surface. The chip surface has a dextran matrix derivatised with carboxyl groups, which after activation with N-hydroxysuccinimide (NHS) and 1-ethyl-3-(3-dimethylaminopropyl) carbodiimide (EDC), form reactive succinimide esters which allows the covalent capturing of the ligand via any available primary amine groups (e.g. Lysine) on the ligand (in this case anti-HuCk antibody). The capture antibody was diluted 1/100 in 10 mM Sodium acetate buffer pH 5.0 and passed over the activated chip surface for a period of at least 420 s. Final ligand immobilisation levels over 12,000 RU were deemed to be satisfactory.
Following immobilisation, the level of each scAb to be captured was identified using the standard SPR equation with a theoretical RMax of 100 RU. Analyte MW refers to the molecular weight of hT40 or dGA/dGAE molecules, while ligand MW refers to the molecular weight of the scAbs tested. RLis the desired capture level and S refers to the stoichiometric ratio:
The scAb to be tested was added only to flow cell 2 so that flow cell 1 could act as a control to subtract any interaction with the analyte and the chip surface. Both single and multi-cycle runs were utilised using wizards developed in the Biacore X100 control software which are both accepted methods of kinetic analysis (Karlsson, R., et al. Analyzing a kinetic titration series using affinity biosensors (2006) Analytical Biochemistry 349:136-47). The multi-cycle protocol was as follows-Three start-up cycles composed of an initial capture, to the desired level, of the scAb to be tested was performed followed by a 30 s injection of glycine buffer pH 2.0 after each cycle to regenerate the chip surface. The regeneration step removed any captured scAb whilst leaving the capture antibody intact and able to repeat the capture for the next cycle. Following three start-up cycles increasing concentrations (0.15625 nM-100 nM) of the target to be tested were added to the chip surface after the desired scAb capture. The target was added for a 120 s association period and 420 s dissociation period followed by another regeneration, 30 s injection of glycine buffer pH 2.0 in between each cycle.
The single cycle kinetics protocol was similar and utilised the same level of scAb capture. Three start-up cycles were used followed by 5 increasing concentrations of the analyte (6.25 nM-100 nM) for an association period of 120 s followed by a dissociation period of 420 s for each concentration. In single cycle kinetics the regeneration step was performed only after the final analyte concentration was added. Binding responses were analysed in Biacore X100 evaluation software and data fitted to a 1:1 binding model to obtain kinetic and affinity characterisation.

Sequence of dGA (P10636 614-707): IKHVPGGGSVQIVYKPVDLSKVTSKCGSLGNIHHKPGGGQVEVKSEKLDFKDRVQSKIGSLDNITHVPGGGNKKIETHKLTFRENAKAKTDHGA

B1: CA4: anti-tau clone, SEQ ID NO: 368 (protein)
chain: QVQLQESGPSLVKPSQTLSLTCTVSGFSLTSYSVYWVRQAPGQALEWISIMYASGRVDYNPALKSRLSITRDTSKSQFSLSLSSVTTEDTAVYYCTRGIENWGPGLLVTVSSEGKSSGASGESKVDDDIQVTQSPSSLSASLTERVSITCRTSQSVNNYLSWYQQKPGQAPKLLIYYATRLYTDVPSRFSGSGSGTDYTLTITSLEADDTATYYCLQYDSTPLAFGGGTNVEIK
modifications: CA4 amino acid sequence
detection of tau in human plasma (plasma tau): high levels of Core/Proline tau is detected in cognitively unimpaired (CU) samples only

B2: CB7: anti-tau clone, SEQ ID NO: 364 (protein)
scFv: QVQLQESGPSLVKPSQTLSLTCTVSGFSLTNYRVGWVRQAPGKALEWVSNIRSGGTTWYNPALKSRLSITADTSKSQVSLSLSSVTTEDTAVYYCARDSSGDLYAYDYWGPGLLVTVSSEGKSSGASGESKVDDQAVLTQPSSVSRSLGQSVSMTCSGSSSNVGYGNYMAWFQQVPGSAPKLLIYGATSRASGVPDRFSGSRSGNTATLTISSLQAEDEADYYCASYDSTSGGVFGSGTRLTVLG
modifications: CB7 amino acid sequence
detection of tau in mouse brain homogenate (tau protein; listed as C-B7 scAb): hT40 tau was specifically detected in L66 samples | detection of tau in mouse brain homogenate (tau protein; listed as CB7 scAb): can specifically detect human tau in Line66 homozygous and heterozygous samples | cross-reaction with endogenous mouse tau protein (tau [1]): does not cross react with endogenous mouse tau protein | Western blot reactivity (tau [2]): specificity for human tau

B3: CE2: anti-tau clone referred to as CE2 or E1B8, SEQ ID NO: 366 (protein)
scFv: QVQLQESGPSLVKPSQTLSLTCTVSGFSLTNYPVGWVRQAPGKALEWIGNIENDGSANYASALKSRLSITRDTSKNQVSLSLSSATTEDTAVYYCGREFGGSDGYTYFVDIDYWGPGLLVTVSSEGKSSGASGESKVDDQAVLTQPSSVSKSLGQSVSITCSGSSSNVGYGNYVSWFQQVPGSAPKILIYGATSRASGVPDRFSGSRSGNTATLTITSLQAEDEADYYCASYDGSSSGVFGSGTRLTVLG
modifications: CE2/E1B8 amino acid sequence
Tau proteins/fragments with positive scAb reactivity (hT40): 297-390 (dGA), 297-391 and (dGAE), 313-336 | ka (dGA; Table 24): 137000 M⁻¹ s⁻¹ | dissociation rate constant (kd) (dGA; Table 24, dissociation rate): 0.00242 s⁻¹
